Laboratory results: paper PMC10320493

What was measured:
[1] = biological target: human μ-opioid receptor (pcDNA3.1-human MOR) (human) (UniProt P35372)
[2] = biological target: human μ-opioid receptor (pcDNA3.1-human MOR) (human) (UniProt P35372); remark: listed apart in the source
[3] = biological target: human μ-opioid receptor (pcDNA3.1-human MOR) (human) (UniProt P35372); assay: radioligand binding
[4] = biological target: human δ-opioid receptor (pcDNA3.1-human DOR) (human) (UniProt P41143)

Row | Substance | maximal net BRET in the G protein (GoA) dissociation assay [1] | Gi/o-mediated cAMP inhibition (GloSensor, HEKT cells), pEC50 [2] | Kd [3] [nM] | pKd [3] | Gi/o-mediated cAMP inhibition (GloSensor, HEKT cells), pEC50 [4]
1 | [D-Ala2, N-MePhe4, Gly-ol]-enkephalin (peptide) | 0.15 | 8.65 | 4.37 | 8.36 | 
2 | DADLE (peptide) |  |  |  |  | 9.69
